Measurements from publication doi:10.1101/270363.

Target: full length nPIST (1st - 463rd aa) (mouse) (UniProt Q8BH60)
Assay: SPR

Substance: F-actin (filamentous actin) (from UniProt P68135 1-377) (natural protein)
- Kd: 13.3 nM
- koff: 0.00123 s⁻¹
- kon: 92500 M⁻¹ s⁻¹
